# According to the nanobody polyreactivity screen of Harvey et al. (2022):
# Assay: yeast display, Sf9 membrane polyspecificity reagent, FACS + sequencing; frameworks hold sequencing errors
# Outline: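 Sorting gates, low and high (top ~1%), were placed on anti-HA fluorescence to track expression and on streptavidin fluorescence to track reagent binding. A clone's polyreactivity label is taken from the gate it came out of. The reagent was 10% biotinylated, detergent-solubilized Sf9 membrane, applied for 1 hour at 4 °C to galactose-induced yeast display cells.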
row,Sequence,polyreactivity (PSR sort gate)
1,QVQLVESGGGLVQAGGSLRLSCAASGFTFTTYGMGWSRQAPWKERELVAAISWSGGSTYYADSVKGRFTISRDNAKNTVYLQMNSLNPEYTAVYYCAKDRTYQASTLGYWGQGTQVTVSS,low polyreactivity
2,QVQLVESGGGLVQAGGSLRLSCAASGFTFTTYVMGSYRQAPGKERELVAAISRRGTSTRYADSVKGRFTISRDNAKNTVYLQMNSLKPEDTAVYYCAADRPYSIVPYDYWGQGTQVTVSS,high polyreactivity
3,QVQLVESGGGLVQAGGSLRLSCAASGFTFTWNTMGWYRQAPGKERELVAAITTGGRTYYADSVKGRFTISRDNAKNTVYLQMNSLKPEDTAVYYCNKLFIAKYDSWGQGTQVTVSS,high polyreactivity
4,QVQLVESGGGLVQAGGSLRLSCAASGFTFTYNAMGWYRQAPGKERELVAAITANGGGTNYADSVKGRFTISRDNAKNTVYLQMNSLKPEDTAVYYCAATIVVAVFESLVFYWYTEDNYWGQGTQVTVSS,low polyreactivity
5,QVQLVESGGGLVQAGGSLRLSCAASGFTFTYNAMGWYRQAPGKERELVARIRWSTGSTYYADSVKGRFTISRDNAKKTVYLQMNSLKPEDTAVYYCAADGYGWGGSGWQYPHGFGYWGQGTQVTVSS,low polyreactivity
6,QVQLVESGGGLVQAGGSLRLSCAASGFTFTYYAMGWYRQAPGKERELVAAISRNGGDTYYADSGKGRFTISRDNAKNTVYLQMNSLKPEDSAVYYCNARTPTDSTHFDYWGQGTQVTVSS,low polyreactivity
7,QVQLVESGGGLVQAGGSLRLSCAASGFTFTYYAMGWYRQAPGNERELVAAISSGGNTYYADSVKGRFTISRDNAKNTVYLQMNSLKPEDTAVYYCAAQYSKRAWSWTYAYSYFRFDYWGQGTQVTVSS,low polyreactivity
8,QVQLVESGGGLVQAGGSLRLSCAASGFTFTYYTMGWYRQAPGKARELVAAISWSGGSTYYADSVKGRLTISRDNANNPVYLQMNSLKPEDTEVYYCNKVGIGYNTKRDYWGQGTQVTVSS,high polyreactivity
9,QVQLVESGGGLVQAGGSLRLSCAASGFTFTYYTMGWYRQAPGKERELVAGISRSGGSTYYADSVKGRFTISRDNAKNTVYLQMNSLKPEDTAVYYCAAVVRSYSDRYDYWGQGTQVTVSS,high polyreactivity
10,QVQLVESGGGLVQAGGSLRLSCAASGFTFTYYTMGWYRQAPGKESELVAAISWSGGRTYYADSVKGRFTISRDNAKNTVYLQMNSLKPEDTAVYYCAAVYSSYYSSSYGYWGQGTQVTVSS,high polyreactivity
11,QVQLVESGGGLVQAGGSLRLSCAASGFTFVDNAMGWYRQPPRKERELVAAISWTGVGSTYYADSVKGRFTISRDNAKNTDYLQMNSLKPEDTAVYYCAADGLSRGVPDEFDYWGQGTQVTVSS,low polyreactivity
12,QVQLVESGGGLVQAGGSLRLSCAASGFTFVFYAIGWYRQAPGKARELVAAISSRGGSTYYADSVKGRFTISRDNAKNTVYLQMNSLKPEDTAVYYCNVVSPYWTTYEEYYWGQGTQVTVSS,high polyreactivity
13,QVQLVESGGGLVQAGGSLRLSCAASGFTFVKNVMGWYRQAPGKERELVADITRRGGTTYYADSVKGRFTISRDNAKNTVYLQMNSLKPEDTAVYYCATEYWYGIYGYDYWGQGTQVTVSS,high polyreactivity
14,QVQLVESGGGLVQAGGSLRLSCAASGFTFVKYAMGWYRQAPGKERELVAVISRRGGSTYYADSVKGRFTISRDNAKNTVYLQMNSLKPEDTAVYYFAAKVALPRTQEWEYGYWGQGTQVTVSS,high polyreactivity
15,QVQLVESGGGLVQAGGSLRLSCAASGFTFVPYAMGWYRLAPGKEREFVATISWSAGRTYYADSVKGRFTISRDNAKNTVYLQMNSLKPEDTAVYYCNTASYRGYDYWGQGTQVTVSS,high polyreactivity
16,QVQLVESGGGLVQAGGSLRLSCAASGFTFVPYAMGWYRQAPGKERELVAAISSTGGSTYYADSVKGRFTISRDNAKNTVYLQMNSLKPEDTAVYYCAAKITRRYYPGYLFDSWGQGTQVTVSS,high polyreactivity
17,QVQLVESGGGLVQAGGSLRLSCAASGFTFVPYDMGWYRQAPGKERELVAAITDSSGSTHYADSVKGRFTFSRDNAKNTVYLQMNSLKPEDTAVYYCAADDSSRTTYDYWGQGTQVTVSS,low polyreactivity
18,QVQLVESGGGLVQAGGSLRLSCAASGFTFVRNAMGWYRQAPGKERELVAAISYRGGSTYYADSVKGRFTISRDNAKNTVYLQMNSLKPEDTAVYYCAAEAGYSSRRYYWGQGTQVTVSS,high polyreactivity
19,QVQLVESGGGLVQAGGSLRLSCAASGFTFVRNAMGWYRQAPGNERELVAALSTSAGSTYYADSVKGRFTISRDNAKNTVYLQMNSLKPEDTAVYYSAASASRYFVLAASGGIRYYYWGQGTQVTVSS,high polyreactivity
20,QVQLVESGGGLVQAGGSLRLSCAASGFTFVRYAMGWYRQAPGKERELVAAISRSSGSTYYADSVKGRFTISRDNAKNTVYLQMNSLKPEDTAVYYCARRYGRYSGTYDYWGQGTQVTVSS,high polyreactivity

row,Sequence,polyreactivity (PSR sort gate)
1,QVQLVESGGGLVQAGGSLRLSCAASGFTFVRYVMGWYRQAPGKERELVAAISRSGGSTHYADSVKGRFTISRDNAKYTVYLQMNSLKPEDTAVYYCAAASPRWPGQGDYWGEGTQVTVSS,high polyreactivity
2,QVQLVESGGGLVQAGGSLRLSCAASGFTFVSYAMGWYRQAPGKERELVAAISKRGGSTSYADSVKGRFTISRDNAKNTVYFQMNSLKPEDTAVYYCYNRSYAWSPHVDYWGQGTQVTVSS,high polyreactivity
3,QVQLVESGGGLVQAGGSLRLSCAASGFTFVSYAMGWYRQAPGKERELVAAISRSGGRTYYADSVKGRFTISRDNAKNTVYLQMNSLKPEDSAVYYCAKAYRPFYSRVQDYDYWGQGTQVTVSS,high polyreactivity
4,QVQLVESGGGLVQAGGSLRLSCAASGFTFVTYAMGWSSQAPGKERELVATISWGVGGSYYADSVKGRFTISRDNAKNTVYLPMNSLKPEDTAVYYCNARHTWHQTYDYWGQGTQVTVSS,low polyreactivity
5,QVQLVESGGGLVQAGGSLRLSCAASGFTFVWYAMGWYRQAPGKEREFVAAINRSGGSTYYADSVKGRFTISRDNAKNTVYLQMNSLKPEDTAVYYCAAESWRGWSEFYYWGQGTQVTVSS,high polyreactivity
6,QVQLVESGGGLVQAGGSLRLSCAASGFTFVYNAMGWYRQAPGKERELVAAISSSGGRTYYADSVKGRFTISRDNAKNTVYLQMNSLKPEDTAVYYCAVEYPVYYYVEYDYWGQGTQVTVSS,high polyreactivity
7,QVQLVESGGGLVQAGGSLRLSCAASGFTFVYYAMGWYRQAPGKERELVAAISQSGSSTYYADSVKGRFTISRDNPKNTVYLQMNSLKPEDTAVYYCNVYYASRPTYDFGYWGQVTQVTVSS,high polyreactivity
8,QVQLVESGGGLVQAGGSLRLSCAASGFTFVYYAMGWYRQAPGKERELVAAITSADSTNYADSVKGRFTISRDNAKNTVYLQMNSLKPEDTAVYYCNAVYDYYRQSKWTMVYWGQGTQVTVSS,low polyreactivity
9,QVQLVESGGGLVQAGGSLRLSCAASGFTFVYYAMGWYRQAPGKERELVATISGNGGRTYYADSVKGRFTISRDNAKNTVYLQMNSLIPDDTAVYYCATDVGFGRKQRPHRPGYGYWGQGTLVTVSS,low polyreactivity
10,QVQLVESGGGLVQAGGSLRLSCAASGFTFVYYAMGWYRQAPGKERELVPAISWNGGSTYYADSVKGRFTISRDNAKNTVYLQMNCLKPEDTAVYYCAAEYSYRLLQTFYYPYGYWGQGTQVTVSS,high polyreactivity
11,QVQLVESGGGLVQAGGSLRLSCAASGFTFVYYTMGWYRPAPWKERELVAAITWRGSTYYADSVKGRFTISRDNAKNTVYLQMNSLKPEDTAVYYCAARYRVLLRHREYDYWGQGTQVTVSS,high polyreactivity
12,QVQLVESGGGLVQAGGSLRLSCAASGFTFVYYVMGWYRQAPGKERELVAAINAGGGSTYYADSVKGRFTISRDNAKNTVYLQMNSLKPEDTAVYYCNARVRVRLGRKWSSYYYWGQGTQVTVSS,high polyreactivity
13,QVQLVESGGGLVQAGGSLRLSCAASGFTFWGYGMGWYRQAPGKERELVAAISGSGGSTYYADSVKGRFTISRDNAKNTVFLQMNSLKRKIPRSITALLFTVNGGGSRSHDYWAQGTQVTVSS,low polyreactivity
14,QVQLVESGGGLVQAGGSLRLSCAASGFTFWQYAMGSSRTAPGKERELVAAISSRGGSTYYADSVKGRFTISRDKAKNTVYLQMNSLKPEDTAVYYCNARANGFKDGYWGQGTQVTVSS,high polyreactivity
15,QVQLVESGGGLVQAGGSLRLSCAASGFTFWQYTMGWYRQAPGKERELVAAITSSGGSTYYADSVKGRFTISRDNAKNTVYLQMNSLKPEDTAVYYCAADGWGYSFQWQDHDYWGQGTQVTVSS,low polyreactivity
16,QVQLVESGGGLVQAGGSLRLSCAASGFTFWRYAMAWYRQAPWKERDLVAAISRTGGRTYYADSVKGRFTISRDNAKNTVYLQMNSLKPEDTAVDYCAAVKYETYRYNYDYWGQGTQVTVSS,high polyreactivity
17,QVQLVESGGGLVQAGGSLRLSCAASGFTFWRYTMGWYRQAPGKERELVAAINWSGGRTYYADSVKGRFTISRDNAKNTVYLQMNSLKPEDTAVYYCATGYSTSVGGSQGDSWGQGTQVTVSS,high polyreactivity
18,QVQLVESGGGLVQAGGSLRLSCAASGFTFWRYTMGWYRQAPGKERELVATIRRGTSTNYADSVKGRFTISRDNAKNTVYLQMNSLKPEDTAVYYCAADPWRYYVEYDYWGQGTQVTVSS,high polyreactivity
19,QVQLVESGGGLVQAGGSLRLSCAASGFTFWTYAMGWYRQAPGKERELVAAIDSGGSTYYADSVKGRFTISRDNAKNTVYLQMHSLKPEDTAVYYCNAGPSVTSGYDYDYWGQGTQVTVSS,low polyreactivity
20,QVQLVESGGGLVQAGGSLRLSCAASGFTFWTYPMGWYIQAPGKERELVAAIDSGGSTYYADSVKGRFTISRDNAKNTVYLQMNSLKPEDTAVYYCNAGPSVTSGYDYDYRGQGTQVTVSS,low polyreactivity
